According to publication PMC6160142, “Structural and biochemical characterization of the Cutibacterium acnes exo-β-1,4-mannosidase that targets the N-glycan core of host glycoproteins” (PLoS ONE, 2018):

Tests used:
[1] = molecular target: CaMan5_18, exo-β-1,4-mannosidase (GH5 subfamily 18) from Cutibacterium acnes strain 266 (Cutibacterium acnes strain 266); assay: SEC; HiLoad 16/60 Superdex 200 prep grade in 25 mM K2HPO4 pH 7.2, 150 mM NaCl, calibrated with five protein standards
[2] = system: O=[N+]([O-])c1ccc(O[C@@H]2O[C@H](CO)[C@@H](O)[C@H](O)[C@@H]2O)cc1; assay: purified protein; conditions: stated pHopt and Topt (pH 6.5, 60 °C; methods for pNP sugars give 50 mM sodium phosphate pH 6.0, 50 °C, 10 min); 0.5 to 20 mM substrate

Substance | stoichiometry N [1] | Km [2] | kcat [2] | kcat/Km [2]
CaMan5_18, exo-β-1,4-mannosidase (GH5 subfamily 18) from Cutibacterium acnes strain 266 (enzyme) | 2 |  |  | 
CaMan5_18 (Cutibacterium acnes subsp. acnes) |  | 10.4 mM | 7.8 s⁻¹ | 750 M⁻¹ s⁻¹
